From PMC3735830 (Nature structural & molecular biology, 2013)

Legend:
[1] = biological target: T1, Orc1 (S. cerevisiae, UniProt P54784 1-914); test: cryo-EM structure
T1 sequence: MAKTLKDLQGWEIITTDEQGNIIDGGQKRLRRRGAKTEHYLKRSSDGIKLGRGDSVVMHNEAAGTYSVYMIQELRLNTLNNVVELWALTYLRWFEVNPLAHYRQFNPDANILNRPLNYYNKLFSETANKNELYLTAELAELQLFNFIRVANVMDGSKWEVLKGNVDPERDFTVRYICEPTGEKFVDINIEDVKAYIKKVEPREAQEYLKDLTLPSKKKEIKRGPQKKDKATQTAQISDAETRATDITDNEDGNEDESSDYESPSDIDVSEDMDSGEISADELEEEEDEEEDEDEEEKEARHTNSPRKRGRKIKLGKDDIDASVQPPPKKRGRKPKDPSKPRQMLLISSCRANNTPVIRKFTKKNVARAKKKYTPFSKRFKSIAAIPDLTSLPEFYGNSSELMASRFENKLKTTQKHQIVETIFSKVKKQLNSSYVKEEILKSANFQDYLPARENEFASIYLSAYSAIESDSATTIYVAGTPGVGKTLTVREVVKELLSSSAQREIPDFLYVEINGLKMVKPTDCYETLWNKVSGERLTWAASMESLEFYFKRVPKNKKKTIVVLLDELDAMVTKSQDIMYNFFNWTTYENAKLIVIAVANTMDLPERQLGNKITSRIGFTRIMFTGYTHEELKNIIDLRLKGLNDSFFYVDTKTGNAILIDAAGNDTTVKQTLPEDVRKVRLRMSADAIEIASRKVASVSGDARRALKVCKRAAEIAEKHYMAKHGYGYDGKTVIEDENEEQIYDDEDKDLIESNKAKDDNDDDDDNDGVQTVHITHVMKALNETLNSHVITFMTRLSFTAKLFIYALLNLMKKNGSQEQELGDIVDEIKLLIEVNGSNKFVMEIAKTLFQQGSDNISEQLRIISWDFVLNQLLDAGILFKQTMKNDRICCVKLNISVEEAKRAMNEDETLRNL

[2] = biological target: T2, Orc3 (S. cerevisiae, UniProt P54790 1-616); test: cryo-EM structure
T2 sequence: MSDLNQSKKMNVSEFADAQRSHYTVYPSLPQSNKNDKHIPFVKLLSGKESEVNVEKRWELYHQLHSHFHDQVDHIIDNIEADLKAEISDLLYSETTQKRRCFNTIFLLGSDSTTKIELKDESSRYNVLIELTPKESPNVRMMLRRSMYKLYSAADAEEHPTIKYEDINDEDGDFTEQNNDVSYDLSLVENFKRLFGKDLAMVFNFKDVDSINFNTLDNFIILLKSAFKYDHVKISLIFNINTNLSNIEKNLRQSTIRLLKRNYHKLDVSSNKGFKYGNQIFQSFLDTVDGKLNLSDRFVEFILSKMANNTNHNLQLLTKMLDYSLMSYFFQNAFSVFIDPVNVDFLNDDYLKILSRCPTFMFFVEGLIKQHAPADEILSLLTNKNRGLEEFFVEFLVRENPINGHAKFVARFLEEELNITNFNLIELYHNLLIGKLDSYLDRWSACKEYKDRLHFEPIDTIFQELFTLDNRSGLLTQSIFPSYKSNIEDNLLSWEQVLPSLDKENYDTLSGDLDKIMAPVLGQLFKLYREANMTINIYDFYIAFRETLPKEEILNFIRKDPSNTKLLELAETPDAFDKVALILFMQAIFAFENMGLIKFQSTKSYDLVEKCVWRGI

[3] = biological target: T3, Mcm2 (S. cerevisiae, UniProt P29469 1-868); test: co-IP
T3 sequence: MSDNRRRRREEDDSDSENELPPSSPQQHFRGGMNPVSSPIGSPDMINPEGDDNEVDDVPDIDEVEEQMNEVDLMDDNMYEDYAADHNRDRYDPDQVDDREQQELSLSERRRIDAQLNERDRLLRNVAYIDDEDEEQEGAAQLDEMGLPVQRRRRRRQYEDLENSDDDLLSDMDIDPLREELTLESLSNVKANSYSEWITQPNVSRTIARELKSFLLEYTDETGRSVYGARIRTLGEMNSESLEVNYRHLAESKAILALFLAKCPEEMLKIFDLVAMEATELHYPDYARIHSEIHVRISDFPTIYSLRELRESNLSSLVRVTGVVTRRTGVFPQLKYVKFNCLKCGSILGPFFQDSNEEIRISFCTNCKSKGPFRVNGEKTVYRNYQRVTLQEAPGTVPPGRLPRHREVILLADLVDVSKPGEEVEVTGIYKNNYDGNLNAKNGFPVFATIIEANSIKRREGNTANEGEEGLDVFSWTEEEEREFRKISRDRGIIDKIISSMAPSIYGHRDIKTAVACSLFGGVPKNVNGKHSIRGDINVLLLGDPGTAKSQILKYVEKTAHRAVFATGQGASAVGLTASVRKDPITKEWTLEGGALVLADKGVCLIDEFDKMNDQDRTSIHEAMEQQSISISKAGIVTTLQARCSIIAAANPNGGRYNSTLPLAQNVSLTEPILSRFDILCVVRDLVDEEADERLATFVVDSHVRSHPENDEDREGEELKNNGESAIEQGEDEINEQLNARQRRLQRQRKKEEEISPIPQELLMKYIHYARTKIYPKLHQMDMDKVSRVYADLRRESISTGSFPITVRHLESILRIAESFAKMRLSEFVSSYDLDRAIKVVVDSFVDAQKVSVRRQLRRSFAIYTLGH

[4] = biological target: Mcm3 (S. cerevisiae, UniProt P24279 1-971); test: cryo-EM structure
[5] = biological target: T4, Mcm4 (S. cerevisiae, UniProt P30665 1-933); test: cryo-EM structure
T4 sequence: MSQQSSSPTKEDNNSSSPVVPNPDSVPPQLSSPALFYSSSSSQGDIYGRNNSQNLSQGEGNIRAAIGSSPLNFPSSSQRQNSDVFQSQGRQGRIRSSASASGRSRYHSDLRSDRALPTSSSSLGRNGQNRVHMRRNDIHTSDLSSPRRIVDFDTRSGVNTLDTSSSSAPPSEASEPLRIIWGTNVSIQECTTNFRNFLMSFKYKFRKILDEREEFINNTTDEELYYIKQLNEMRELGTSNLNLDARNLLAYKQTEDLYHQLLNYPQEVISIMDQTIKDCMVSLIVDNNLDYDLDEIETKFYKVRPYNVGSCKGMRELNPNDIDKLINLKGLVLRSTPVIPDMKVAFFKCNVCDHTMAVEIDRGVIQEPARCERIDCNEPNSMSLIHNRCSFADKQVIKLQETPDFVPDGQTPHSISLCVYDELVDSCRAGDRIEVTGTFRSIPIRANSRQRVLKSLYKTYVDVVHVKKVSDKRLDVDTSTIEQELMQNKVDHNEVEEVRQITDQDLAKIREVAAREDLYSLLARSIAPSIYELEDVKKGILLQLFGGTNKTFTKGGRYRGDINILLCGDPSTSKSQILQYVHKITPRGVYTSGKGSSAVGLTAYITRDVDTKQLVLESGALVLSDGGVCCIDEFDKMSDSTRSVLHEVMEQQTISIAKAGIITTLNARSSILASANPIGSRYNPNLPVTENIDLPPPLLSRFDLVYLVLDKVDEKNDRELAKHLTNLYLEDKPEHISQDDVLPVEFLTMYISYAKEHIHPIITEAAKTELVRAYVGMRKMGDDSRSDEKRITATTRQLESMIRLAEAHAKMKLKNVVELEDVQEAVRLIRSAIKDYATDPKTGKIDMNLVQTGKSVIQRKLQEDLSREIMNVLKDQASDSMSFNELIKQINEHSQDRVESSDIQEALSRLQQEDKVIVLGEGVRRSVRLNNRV

[6] = biological target: Mcm6 (S. cerevisiae, UniProt P53091 1-1017); test: cryo-EM structure
Sequence of Mcm6 (P53091 whole entry): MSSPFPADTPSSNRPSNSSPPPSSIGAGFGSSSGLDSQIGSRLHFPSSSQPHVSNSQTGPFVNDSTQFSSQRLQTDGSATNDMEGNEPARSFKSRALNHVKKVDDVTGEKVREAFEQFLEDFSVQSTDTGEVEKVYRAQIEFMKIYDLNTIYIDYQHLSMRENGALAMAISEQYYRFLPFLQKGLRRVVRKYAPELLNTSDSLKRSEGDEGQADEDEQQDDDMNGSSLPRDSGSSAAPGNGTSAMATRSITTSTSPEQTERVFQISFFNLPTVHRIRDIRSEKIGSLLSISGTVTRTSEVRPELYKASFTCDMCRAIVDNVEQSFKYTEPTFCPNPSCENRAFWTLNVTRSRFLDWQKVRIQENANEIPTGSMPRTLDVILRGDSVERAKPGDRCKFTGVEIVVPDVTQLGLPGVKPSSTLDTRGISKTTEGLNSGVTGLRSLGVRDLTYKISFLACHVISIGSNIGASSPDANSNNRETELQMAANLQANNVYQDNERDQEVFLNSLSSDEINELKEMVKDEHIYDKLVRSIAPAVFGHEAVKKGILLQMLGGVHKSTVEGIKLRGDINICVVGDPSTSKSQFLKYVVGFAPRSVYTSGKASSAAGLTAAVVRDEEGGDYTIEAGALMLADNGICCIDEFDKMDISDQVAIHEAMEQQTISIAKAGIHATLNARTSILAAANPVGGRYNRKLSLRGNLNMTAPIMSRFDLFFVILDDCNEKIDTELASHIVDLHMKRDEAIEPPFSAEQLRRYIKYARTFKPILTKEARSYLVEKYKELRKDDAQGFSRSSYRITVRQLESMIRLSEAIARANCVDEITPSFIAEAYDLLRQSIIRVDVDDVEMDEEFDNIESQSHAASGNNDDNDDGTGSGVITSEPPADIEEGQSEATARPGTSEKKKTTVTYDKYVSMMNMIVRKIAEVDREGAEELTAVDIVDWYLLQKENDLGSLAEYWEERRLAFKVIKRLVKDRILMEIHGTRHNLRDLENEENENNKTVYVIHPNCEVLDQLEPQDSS

Sequence of Mcm3 (P24279 whole entry): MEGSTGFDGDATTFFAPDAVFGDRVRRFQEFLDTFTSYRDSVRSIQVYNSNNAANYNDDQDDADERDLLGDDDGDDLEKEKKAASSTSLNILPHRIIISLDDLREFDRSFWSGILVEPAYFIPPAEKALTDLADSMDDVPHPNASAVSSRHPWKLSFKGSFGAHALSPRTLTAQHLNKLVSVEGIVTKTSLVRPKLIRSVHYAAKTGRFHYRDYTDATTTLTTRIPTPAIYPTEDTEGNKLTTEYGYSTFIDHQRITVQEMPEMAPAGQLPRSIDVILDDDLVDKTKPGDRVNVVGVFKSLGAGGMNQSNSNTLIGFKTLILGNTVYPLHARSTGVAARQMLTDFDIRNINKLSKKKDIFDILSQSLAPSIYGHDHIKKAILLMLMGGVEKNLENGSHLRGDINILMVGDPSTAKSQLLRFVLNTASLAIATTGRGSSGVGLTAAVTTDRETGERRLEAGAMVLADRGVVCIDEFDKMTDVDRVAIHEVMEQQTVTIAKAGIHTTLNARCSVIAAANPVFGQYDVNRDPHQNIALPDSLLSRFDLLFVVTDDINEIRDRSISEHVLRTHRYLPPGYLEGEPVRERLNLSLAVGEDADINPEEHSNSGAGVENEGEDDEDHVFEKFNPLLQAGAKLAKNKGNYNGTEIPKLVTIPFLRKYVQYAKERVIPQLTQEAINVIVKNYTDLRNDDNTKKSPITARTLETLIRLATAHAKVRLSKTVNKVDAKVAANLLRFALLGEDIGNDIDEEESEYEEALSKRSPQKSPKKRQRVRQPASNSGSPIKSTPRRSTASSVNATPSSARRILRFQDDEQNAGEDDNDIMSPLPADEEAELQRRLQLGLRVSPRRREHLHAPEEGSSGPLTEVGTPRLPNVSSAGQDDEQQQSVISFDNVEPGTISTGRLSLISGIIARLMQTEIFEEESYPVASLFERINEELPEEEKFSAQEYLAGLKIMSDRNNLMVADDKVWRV

B1: Orc4 (natural protein)
chain: MTISEARLSPQVNLLPIKRHSNEEVEETAAILKKRTIDNEKCKDSDPGFGSLQRRLLQQLYGTLPTDEKIIFTYLQDCQQEIDRIIKQSIIQKESHSVILVGPRQSYKTYLLDYELSLLQQSYKEQFITIRLNGFIHSEQTAINGIATQLEQQLQKIHGSEEKIDDTSLETISSGSLTEVFEKILLLLDSTTKTRNEDSGEVDRESITKITVVFIFDEIDTFAGPVRQTLLYNLFDMVEHSRVPVCIFGCTTKLNILEYLEKRVKSRFSQRVIYMPQIQNLDDMVDAVRNLLTVRSEISPWVSQWNETLEKELSDPRSNLNRHIRMNFETFRSLPTLKNSIIPLVATSKNFGSLCTAIKSCSFLDIYNKNQLSNNLTGRLQSLSDLELAILISAARVALRAKDGSFNFNLAYAEYEKMIKAINSRIPTVAPTTNVGTGQSTFSIDNTIKLWLKKDVKNVWENLVQLDFFTEKSAVGLRDNATAAFYASNYQFQGTMIPFDLRSYQMQIILQELRRIIPKSNMYYSWTQL
binding result [1]: binds

B2: Cdc6 (natural protein)
chain: MSAIPITPTKRIRRNLFDDAPATPPRPLKRKKLQFTDVTPESSPEKLQFGSQSIFLRTKALLQKSSELVNLNSSDGALPARTAEYEQVMNFLAKAISEHRSDSLYITGPPGTGKTAQLDMIIRQKFQSLPLSLSTPRSKDVLRHTNPNLQNLSWFELPDGRLESVAVTSINCISLGEPSSIFQKIFDSFQDLNGPTLQIKNMQHLQKFLEPYHKKTTFVVVLDEMDRLLHANTSETQSVRTILELFLLAKLPTVSFVLIGMANSLDMKDRFLSRLNLDRGLLPQTIVFQPYTAEQMYEIVIQKMSSLPTIIFQPMAIKFAAKKCAGNTGDLRKLFDVLRGSIEIYELEKRFLLSPTRGSLNSAQVPLTPTTSPVKKSYPEPQGKIGLNYIAKVFSKFVNNNSTRTRIAKLNIQQKLILCTIIQSLKLNSDATIDESFDHYIKAITKTDTLAPLQRNEFLEICTILETCGLVSIKKTKCKGKTKRFVDKIDVDLDMREFYDEMTKISILKPFLH
binding result [1]: binds
binding result [2]: binds

B3: Mcm7 (natural protein)
chain: MSAALPSIQLPVDYNNLFNEITDFLVTFKQDTLSSDATRNENEDENLDAENIEQHLLEKGPKYMAMLQKVANRELNSVIIDLDDILQYQNEKFLQGTQADDLVSAIQQNANHFTELFCRAIDNNMPLPTKEIDYKDDVLDVILNQRRLRNERMLSDRTNEIRSENLMDTTMDPPSSMNDALREVVEDETELFPPNLTRRYFLYFKPLSQNCARRYRKKAISSKPLSVRQIKGDFLGQLITVRGIITRVSDVKPAVEVIAYTCDQCGYEVFQEVNSRTFTPLSECTSEECSQNQTKGQLFMSTRASKFSAFQECKIQELSQQVPVGHIPRSLNIHVNGTLVRSLSPGDIVDVTGIFLPAPYTGFKALKAGLLTETYLEAQFVRQHKKKFASFSLTSDVEERVMELITSGDVYNRLAKSIAPEIYGNLDVKKALLLLLVGGVDKRVGDGMKIRGDINVCLMGDPGVAKSQLLKAICKISPRGVYTTGKGSSGVGLTAAVMKDPVTDEMILEGGALVLADNGICCIDEFDKMDESDRTAIHEVMEQQTISISKAGINTTLNARTSILAAANPLYGRYNPRLSPLDNINLPAALLSRFDILFLMLDIPSRDDDEKLAEHVTYVHMHNKQPDLDFTPVEPSKMREYIAYAKTKRPVMSEAVNDYVVQAYIRLRQDSKREMDSKFSFGQATPRTLLGIIRLSQALAKLRLADMVDIDDVEEALRLVRVSKESLYQETNKSKEDESPTTKIFTIIKKMLQETGKNTLSYENIVKTVRLRGFTMLQLSNCIQEYSYLNVWHLINEGNTLKFVDDGTMDTDQEDSLVSTPKLAPQTTASANVSAQDSDIDLQDA
binding result [3]: binds
binding result [4]: binds
binding result [5]: binds

B4: Cdt1 (natural protein)
chain: MSGTANSRRKEVLRVPVIDLNRVSDEEQLLPVVRAILLQHDTFLLKNYANKAVLDALLAGLTTKDLPDTSQGFDANFTGTLPLEDDVWLEQYIFDTDPQLRFDRKCRNESLCSIYSRLFKLGLFFAQLCVKSVVSSAELQDCISTSHYATKLTRYFNDNGSTHDGADAGATVLPTGDDFQYLFERDYVTFLPTGVLTIFPCAKAIRYKPSTMATTDNSWVSIDEPDCLLFHTGTLLARWSQGMHTTSPLQIDPRANIVSLTIWPPLTTPISSKGEGTIANHLLEQQIKAFPKVAQQYYPRELSILRLQDAMKFVKELFTVCETVLSLNALSRSTGVPPELHVLLPQISSMMKRKIVQDDILKLLTIWSDAYVVELNSRGELTMNLPKRDNLTTLTNKSRTLAFVERAESWYQQVIASKDEIMTDVPAFKINKRRSSSNSKTVLSSKVQTKSSNANALNNSRYLANSKENFMYKEKMPDSQANLMDRLRERERRSAALLSQRQKRYQQFLAMKMTQVFDILFSLTRGQPYTETYLSSLIVDSLQDSNNPIGTKEASEILAGLQGILPMDISVHQVDGGLKVYRWNSLDKNRFSKLLQIHKSKQQD
binding result [6]: binds
